Series [1] has as its target His6-BldC (Streptomyces coelicolor) (UniProt A0A0M7QSG5). As to the kind of experiment: fluorescence polarization. Particulars: FP: 25 mM Tris pH 7.5, 150 mM NaCl, 1 nM F-DNA, 25 C, footprinting: 10 mM Tris HCl pH 7.8, 150 mM NaCl, 2 mM DTT, 1 ug poly(dI-dC), 10% glycerol (none for …).
In series [2] the test system is T1, His6-BldC (Streptomyces coelicolor), ORF:188ed25c.
T1 sequence: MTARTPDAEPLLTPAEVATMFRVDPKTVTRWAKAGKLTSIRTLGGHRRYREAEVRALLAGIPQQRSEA
The series is described as follows: hydroxyl radical footprinting. Particulars: FP: 25 mM Tris pH 7.5, 150 mM NaCl, 1 nM F-DNA, 25 C; footprinting: 10 mM Tris HCl pH 7.8, 150 mM NaCl, 2 mM DTT, 1 ug poly(dI-dC), 10% glycerol (none for …).

Series [3] has the same test system. The series is described as follows: DNase I footprinting. As to conditions: FP: 25 mM Tris pH 7.5, 150 mM NaCl, 1 nM F-DNA, 25 C; footprinting: 10 mM Tris HCl pH 7.8, 150 mM NaCl, 2 mM DTT, 1 ug poly(dI-dC), 10% glycerol (none for …).
Series [4] shares this test system. The series is described as follows: EMSA. As to conditions: FP: 25 mM Tris pH 7.5, 150 mM NaCl, 1 nM F-DNA, 25 C; footprinting: 10 mM Tris HCl pH 7.8, 150 mM NaCl, 2 mM DTT, 1 ug poly(dI-dC), 10% glycerol (none for …).
Series [5] has as its target His6-BldC(E16R) (Streptomyces coelicolor) (UniProt A0A0M7QSG5). The series is described as follows: fluorescence polarization. As to conditions: FP: 25 mM Tris pH 7.5, 150 mM NaCl, 1 nM F-DNA, 25 C; footprinting: 10 mM Tris HCl pH 7.8, 150 mM NaCl, 2 mM DTT, 1 ug poly(dI-dC), 10% glycerol (none for …). A general note: Fluorescence polarisation rises when a labelled molecule tumbles more slowly, as on binding a larger partner.

Series [6] deals with Tag-free BldC (Streptomyces coelicolor) (UniProt A0A0M7QSG5). The series is described as follows: fluorescence polarization. Particulars: FP: 25 mM Tris pH 7.5, 150 mM NaCl, 1 nM F-DNA, 25 C; footprinting: 10 mM Tris HCl pH 7.8, 150 mM NaCl, 2 mM DTT, 1 ug poly(dI-dC), 10% glycerol (none for …).
Series [7] concerns the target His6-SeMet BldC(L43M-L58M) (Streptomyces coelicolor) (UniProt A0A0M7QSG5). As to the kind of experiment: fluorescence polarization. Particulars: FP: 25 mM Tris pH 7.5, 150 mM NaCl, 1 nM F-DNA, 25 C; footprinting: 10 mM Tris HCl pH 7.8, 150 mM NaCl, 2 mM DTT, 1 ug poly(dI-dC), 10% glycerol (none for …).
Where [8] appears, read: stoichiometry 4:1, WT BldC, tag status not stated.

In general, Kd refers to a measure of binding affinity in units of concentration. Read a high Kd as lower affinity. In the case of “ATTCGGACAATTCGGACAATTCGGACAATTCGGACA (double strand) [36mer opt]”, the Kd in series [1] (setting [8]) stood at 20 nM.
Take “CGAGAGGATCATGTGAGTTCTCCTGGTTCACGGGGACAGTCACCATGAGTACTTCCAGGCTCACAGCATGTATCCATACGATAAAAGGTGCAAATGGGGGAAATTCGACCGAATTACCTCAGGTGGCGGAGCGCTCCTTGGGCCGCTCGGGTGTGCCGCGAGCCAGTACCCTGGCGGTTCAC (double strand) [smeA-sffA promoter PCR probe]”: the binding entry in series [2], in series [3] and in series [4] was “binds” in each case.
For the sequence “GAGAACGGACACCAGGCCTCCTGGGGTGCGGGGACGGGGCCGGCTCATGGGGTTTAAGCCGGGACGAACCGTGCTTTCAAGGTCACAGTCGTCTTCGGCACCGAACGCGTCCGCCTTTAGAGAATGATCACGATCTGGTGAGTAACAATCCGAGCAATTCGGACACACTGTCGATCATTCGAAGATCGAACGGTTCCGCACTTTGTCGATACGAGGCCGAAAGTGGCCGTGTCGACAAAGTGACGGAACCTCCTCCGGACGTGCGGACCCCCTGCCCGGAACGATGAACGACGGCTGG (double strand) [whiI promoter PCR probe]”, in series [3], the binding entry is reported as “binds”.
In the case of “TAATTCGGTCGAATTTCCCCCATTTGCACCTTTTATCGTA (double strand) [smeA-ssfA site]”, the Kd in series [1] (setting [8]) was found to be 60 nM.
In the case of “TTCAATTCGCACAATTCGCACA / AATGTGCGAATTGTGCGAATTG [whiI opt bp 8 and 17 to C]”, in series [1], the Kd worked out at 115 nM.
With “TTCAATTCGGACAATTCGGACA / AATGTCCGAATTGTCCGAATTG [whiI opt 22mer (FP)]”, the Kd in series [5] worked out at 140 nM; in series [1], 18.2 nM; in series [1] (stoichiometry 2:1 (Fig. 5a)), 20 nM; in series [6], 16.5 nM; in series [7], 19.6 nM.
Turning to “TTCAATTCGTACAATTCGTACA / AATGTACGAATTGTACGAATTG [whiI opt bp 8 and 17 to T]”, the Kd in series [1] came to 50 nM.
